Data from US11529425B2, “Immunoconjugates comprising signal regulatory protein alpha” (DINGFU BIOTARGET CO., LTD., priority 2017, dated 2022).

Key:
[1] = target: T1, CD47-muFc (Homo sapiens, UniProt Q08722); assay: Binding kinetics by bio-layer inferometry (BLI), Octet K2
T1 construct: made in house; host or cells: transiently transfected FreeStyle 293F cells (HEK293)
Description: The amino acid sequence of the human CD47 extracellular domain (i.e., the 19th residue to the 141th residue in Q08722) was obtained according to the amino acid sequence of human CD47 (Q08722) in the protein database Uniprot. According to the amino acid sequence of the constant region of murine immunoglobulin gamma1 (P01868) in the protein database Uniprot, the amino acid sequence of muFc (i.e., the 112th residue to the 213th residue in P01868) was obtained. The DNAworks Online Tool (helixweb.nih.gov) was used to design the corresponding coding DNA sequence to obtain the CD47-muFc fusion protein gene, and the DNA fragment was obtained by artificial synthesis. The synthetic gene sequences were cloned into commercial vector pcDNA4/myc-HisA (Invitrogen, V863-20) by Fermentas HindIII and EcoRI. The recombinant plasmids were then sequenced for confirmation, thereby obtaining the plasmid DNA of pcDNA4-CD47-muFc. The amino acid sequences of CD47-muFc is as set forth in SEQ ID NO: 61, and the polynucleotide sequence encoding it is as set forth in SEQ ID NO: 62.
Binding kinetics of a hu56di-SIRPα immunoconjugate or control antibodies (SIRPα-Fc IgG1 and AB6.12 IgG1) were determined by the bio-layer inferometry (BLI) method using Octet K2 system (FortéBio). All experiments were performed at 25° C. under a PBS buffer containing 0.5% BSA and 0.5% Tween 20, pH 7.2. CD47-muFc was immobilized onto AHC Biosensors, which were subsequently used in association (with hu56di-SIRPα, SIRPα-Fc IgG1 or AB6.12 IgG1) and dissociation measurements each performed for a time window of 40 seconds and 300 seconds, respectively. After the above steps, the subtracted binding interference data were applied to the calculations of binding constants using the FortéBio analysis software provided with the instrument.

[2] = test system: A375 cell (expressing CD47) and A375-PD-L1 tumor cells (expressing both CD47 and PD-L1); assay: Tumor binding in excess erythrocyte antigen sink, flow cytometry; conditions: 15-fold excess of RBCs, FIG. 6a
Description: An important concern about CD47-based therapeutics is the expression of the target on the surface of erythrocyte, which has the potential to act as a large antigen sink and cause hematological toxicity. […] The binding of hu56di-SIRPα to tumor cell in excess human erythrocytes antigen sink was therefore assessed by flow cytometry. A375 cell (expressing CD47) and A375-PD-L1 tumor cells (expressing both CD47 and PD-L1) were mixed with a 15-fold excess of RBCs, and then incubated with 20 μg/ml hu56di-SIRPα, SIRPα-Fc IgG1 or AB6.12 IgG1 or isotype control (human IgG1) at 4° C. for 30 min. Then the cells were washed to remove unbound proteins and incubated with an anti-hlgG Fc gamma specific PE antibody at 4° C. for 20 min. The cells were analyzed by flow cytometry (Life Technology). The gate of erythrocytes was assessed by anti-human CD235a (eBiosciences Cat #12-9987-80).
Then the cells were washed to remove unbound proteins and incubated with an anti-hlgG Fc gamma specific PE antibody at 4° C. for 20 min. The cells were analyzed by flow cytometry (Life Technology). The gate of erythrocytes was assessed by anti-human CD235a (eBiosciences Cat #12-9987-80).

[3] = test system: human erythrocytes (RBC); assay: RBC binding in tumor cell / 15-fold excess RBC mix, flow cytometry; conditions: tumor cells mixed with 15-fold excess of RBCs, 20 μg/ml, FIG. 6a-6e
[4] = test system: RBC; assay: Binding to fresh RBC diluted 2500 times, flow cytometry; conditions: 20 μg ml^−1, FIG. 6f
Description: Similarly, fresh RBC cell was diluted 2500 times, then it was incubated with 20 μg ml^−1 isotype control (human IgG1), hu56di-SIRPα, hu56di-CV1, SIRPα-Fc IgG1 and AB6.12 IgG1, respectively. The results were shown in FIG. 6f, in which serial numbers of 1, 2, 3, 4 and 5 correspond to isotype control, hu56di-SIRPα, hu56di-CV1, SIRPα-Fc IgG1 and AB6.12 IgG1.

[5] = reported in treated animal; cited from earlier work
[6] = reported after being injected into human; cited from earlier work
[7] = test system: mouse RBCs; assay: Mouse RBC binding, MC38 tumor cells mixed with 15-fold excess of mouse RBCs; conditions: MC38 cells with 15-fold excess of mouse RBCs, 20 μg/ml, FIG. 6g/6h
Description: Similarly, MC38 tumor cells were mixed with a 15-fold excess of mouse RBCs, and then incubated with 20 μg/ml, a-mPD-L1, mSIRPα-Fc, CV1-Fc, mPD-L1-CV1, mPD-L1-mSIRPα or isotype control (human IgG1) at 4° C. for 30 min. Then the cells were washed to remove unbound proteins and incubated with an anti-hlgG Fc gamma specific PE antibody at 4° C. for 20 min. The cells were analyzed by flow cytometry (Life Technology). The gate of erythrocytes was assessed by anti-mouse RBC antibody (abcam Cat #ab106101). In FIG. 6g, serial numbers of 1, 2, 3 and 4 correspond to isotype control (human IgG1), mSIRPα-Fc, a-mPD-L1 and mPD-L1-mSIRPα. In FIG. 6h, serial numbers of 1, 2, 3 and 4 correspond to isotype control (human IgG1), CV1-Fc, a-mPD-L1 and mPD-L1-CV1.

T1 sequence (Q08722 with tags, fused parts or gaps): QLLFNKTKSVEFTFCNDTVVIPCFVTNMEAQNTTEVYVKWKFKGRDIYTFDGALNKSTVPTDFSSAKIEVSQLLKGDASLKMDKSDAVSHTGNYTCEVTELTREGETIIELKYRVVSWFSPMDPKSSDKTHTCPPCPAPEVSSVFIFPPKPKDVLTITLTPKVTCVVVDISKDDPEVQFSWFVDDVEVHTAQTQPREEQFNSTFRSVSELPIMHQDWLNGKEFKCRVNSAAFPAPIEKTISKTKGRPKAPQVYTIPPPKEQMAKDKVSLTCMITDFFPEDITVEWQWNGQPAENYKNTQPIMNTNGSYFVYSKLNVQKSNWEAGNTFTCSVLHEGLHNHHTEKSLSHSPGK

| Substance | binding affinity to CD47 (comparison in words) ([1]; Table 6) | kon ([1]; association 40 seconds, 25° C.) [M⁻¹ s⁻¹] | kdis ([1]; dissociation 300 seconds, 25° C.) [s⁻¹] | preference of binding, tumor cells versus RBC [2] | binding to RBC (MFI) [3] | binding to RBC [4] | anemia [5] | thrombocytopenia [6] | binding to mouse RBC [7] |
| --- | --- | --- | --- | --- | --- | --- | --- | --- | --- |
| SIRPα-Fc IgG1: reference homodimer: human SIRPα fused via peptide linker to human IgG1 Fc, SEQ ID NO: 69 | comparable binding affinity to CD47 | 650000 | 0.00377 | bound tumor cells and RBCs at the same time | bind to RBC | weaker binding to RBC than hu56di-CV1 and AB6.12 IgG1 | anemia has been reported | induced thrombocytopenia | – |
| mSIRPα-Fc: mouse SIRPα fused via linker to human IgG1-Fc, SEQ ID NO: 152, Group 18 | – | – | – | – | – | – | – | – | weaker binding to RBC than mPD-L1-CV1 |
